The data set deals with Saccharomyces cerevisiae. Kind of data set: transcriptional activation domain activity (GFP:mCherry ratio, weighted mean of sorted bins, harmonized to initial dataset scale) (arbitrary fluorescence ratio units); higher = stronger transcriptional activation. To be noted: beta-estradiol 1 µM; induction time 4 h. A digest of the protocol: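 Activation activity, the read-weighted mean of bin median fluorescence averaged across barcodes, was linearly mapped onto the scale of the initial dataset. It was measured for barcoded protein tiles fused to an estradiol-inducible synthetic transcription factor at URA3 in GFP-reporter yeast diploids. Cultures diluted 1:5 into SC with 1 uM beta-estradiol were held 4 hours at 30 °C, sorted into 8 bins by GFP:mCherry ratio, and barcode-sequenced, and tiles under 50 reads were discarded.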
On to “SVYLHALKKVITTWKGEVLPIILARKIQWTEWEIKDLEYEITHFYVKTFFMTI”, for which the “transcriptional activation domain activity” value was 47900.

As for “MYHIPWPQVLWVGYQLRPTQIMGIFCSHLSVVLLVLPTPYYFLFHVLFLLWAS”, the “transcriptional activation domain activity” value is 48900. With “IVRIVFFPTIFSFFNFFAVWFYQRSWILLPFPELYECFALVAMFYLLVVYVTP” the figure was 46200; with “KKPAAKKQKTAPAEKINTTDDSKKARGRPKKADSNGTAKAAQKKKEPKAAATA”, 32900. With “MLFTIVPLLCILHHIVLHPIFPSLFYTHIHLCTFFFFFNSVFFFFMFYILVFN”, the “transcriptional activation domain activity” value came to 50200.

Regarding “IMCQWVKNLKERLLKMPPALRICLADHVLKFVIPKLHILGHLKLCQELFSLLY”, the “transcriptional activation domain activity” value was found to be 47100. The same measure for “LIRAVWSHFKADFNAIYLGRLLVLLAYQKRRPRPPTGYNLGHHADPGLHTFWA”: 38200; for “MTTDNTQKPTISLVEKVDLVFRLLAIAPLRHAIHFTRSLFIAYWRGLPLRLHI”: 70300. In the case of “AYNALIFALVVCICTFGCCAYIFVSSLFIHKLYNKFIILAAHIWMIIFWLVDL”, the “transcriptional activation domain activity” value stood at 62400. Regarding “FANWLGLQKNGMGMRLFPFFIFSLFFLSFFSLFWGFSFFFSFSFFFGFSFFWF”, the “transcriptional activation domain activity” value was found to be 23100. Turning to “NIKTFLYTCITHIYINFILCLCACITHYQVYYHYYVNIFTFIFVWLCSFFLFL”, the “transcriptional activation domain activity” value was found to be 45200.

Turning to “ATWKLVQIGYRRDESLFLYFFYFYLFLFCFNMCGSSFYLLLLCCHIHIVAHSV”, the “transcriptional activation domain activity” value was 71000. With “HLRNDTRLIPGIKYLQMVLGRVRYCREIIAILARNGHRLPKGMLSTLVRLWLL” the figure was 34800; with “AAADAEVDELEDGTADADGAKPKKRKRGGDADGKPKSARKDAPAAAKKKGGAA”, 36500; with “YCGSLGCMILVAGIKLLRLLKHHLTVQRALRSNIGKIKAGMLKVKIIMIVGCV”, 66400. On to “WSVFFFFFFFFCLNLSVLWLWFFRLFFFFFFLCAFDVLCLPLSCPPLFRPKAT”, for which the “transcriptional activation domain activity” value came to 48200. With “PIPLGYGSLWMYEFLYFCLLHVVFTICDGIYLLRAELTLIILLHFLLSWDEGN”, the “transcriptional activation domain activity” value is 47600.

Turning to “GGGGQKRKAGAAQDDASSQQPKKKKAKKGGKGKGAQQQKQQGGASGSGGGQAS”, the “transcriptional activation domain activity” value is 31500. “EAGNERRESSRRHDDTERRERRRHRSHDRGHDRERRHRRHRRSRSRDRDGGRE”: the “transcriptional activation domain activity” value came out at 34300. Regarding “KAGGTGAKQEKEPQGEGRETEGNQAKANRRTKGGTARGEGAAGGRRRRKGEES”, the “transcriptional activation domain activity” value was 35000. The same measure for “PDELVKSASRLEIDDPSPVTADGAKKSKNQLKKEQKARQLQLQRSLGPASGAP”: below 6570; for “LHPAPSSPSSTPRRRAAASTTATRTPAPAPTRTRRCSSSTKPPTASSSTPPRR”: 57400.

With “VFLFLLTYFTIDIGLTNLPPLVIITVYLPHPPPLPDILLYWVLFLCCAVWGAV”, the “transcriptional activation domain activity” value was 39800. The same measure for “YSRLILSVIIQFYQRCSDRFQDVVSRNSLDLTDTRLLVSARWAQRENLVVCLS”: 49600; for “DREHRSKHRRHSSDSRSRSHSHRERRKDKSKHREKEKDKDRKKRKKEKERRRD”: 36500; for “YHVQQSNIQLYDNDQVHIFLRKHFLYWLEALSLIGRLYEGVLALKILESILTL”: 61500. As to “RNLGKLCSLHIEIRDPDLHRWNLVTLILVVHTLKSPFLERVCISFATYANIYG”, the “transcriptional activation domain activity” value is 42300. Consider “IKKGAASPSKKGGRGSAKAKKEESDDEDVKPAKKAKGAAAAKGKPKGKALKKE”, for which the “transcriptional activation domain activity” value came out at 24200. “GAEGAGAPGGAPPQLKKPKKHHKKKHHKKHGHRGGKHKHGKKGKWGKKGKKGL”: the “transcriptional activation domain activity” value came to 15100. The same measure for “SAFDLADAIEKQSVSKLEKFSTTALSLELNCLVCLIKVLLKMYLSSDPAFEPY”: 42200.

For the origin of these results see the supplement of paper PMC12636428.
